Experiment: yeast display, Sf9 membrane polyspecificity reagent, FACS + sequencing; frameworks hold sequencing errors
In short: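 After 36–48 hours of galactose induction, yeast (Saccharomyces cerevisiae BJ5465) displaying a synthetic nanobody library were stained at 4 °C for 1 hour with 10% biotinylated, detergent-solubilized Sf9 membrane reagent. Streptavidin microbeads enriched the stained cells before FACS sorting into low and high (top ~1%) gates on anti-HA and streptavidin fluorescence. Each clone's polyreactivity label reflects its gate of origin.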

Row | Sequence | polyreactivity (PSR sort gate)
1 | QVQLVESGGGLVQAGGSLRLSCAPSGRIFWFNMGCYRQAPGKERELVAAINSGGRTNYADSVKGRFTISRDNAQNTVYLQMNSLKPEDTAVYYCNARYYQVRRWYHYDYSGQGTQVTVSS | high polyreactivity
2 | QVQLVESGGGLVQAGGSLRLSCAPSGRIFYTKAMGWYRPAPGKERELVATIRISGGNTYYADSVKGRFTISRDNAKNTVYLQMNSLKPEDTAVYYCAARARPRYYRPPYDYWGQGTQVTVSS | high polyreactivity
3 | QVQLVESGGGLVQAGGSLRLSCAPSGRILAYYAMGWYRQAPGKEREFVAAIDSGSSTNYADSVKGRFTISRDNAKNTVYLQMNSLKPEDTAVYYCAARIRWWYYYLRSQTYYYWGQGTQVTVSS | low polyreactivity
4 | QVQLVESGGGLVQAGGSLRLSCAPSGRTFGGYVRGRYRQAPGKERELVATITYSGGSTHYADSVKGRFTISRDNAKITVYLQMNSLKPEDTAVYYCARRRSYRYPSEYNYWGQGTQVTVSS | high polyreactivity
5 | QVQLVESGGGLVQAGGSLRLSCAPSGRTFPYYAIGSYRQAPGKERELVARITGSGTSTYYADSVKGRFTISRDNAKNTVYLQMNSLKPEDTAVYYCAAPKYGSYYIADYEYWGQGTQVTVSS | low polyreactivity
6 | QVQLVESGGGLVQAGGSLRLSCAPSGRTFVSNAMGWYRQAPGKERELVAGINWTDDSTYYADSVKGRFTISRDNAKNTVYLQMNSLKPEDTGVYFCGAYSWEFAWPRFDYWGQGTKVTVSS | low polyreactivity
7 | QVQLVESGGGLVQAGGSLRLSCAPSGRTFVWNAMGWYRQAPVKERELVAAITSGGSTNYADSVKGRFTISRDNAKNTVYLQMNSLKAEDTAVYYCAAYPDYYEDDYWGQGTQVTVSS | low polyreactivity
8 | QVQLVESGGGLVQAGGSLRLSCAPSGRTFWAYAMGWYRQAPGKERELVAAITRSGTTTSYADSVKGRFTISRDNAKNTVYLQMNSLKPEDTAVYYCNARPIRVYINSAQHYDYWGQGTQVTVSS | high polyreactivity
9 | QVQLVESGGGLVQAGGSLRLSCAPSGRTFYIYAMGWSRQAPGKERELVAAITRSGGSTYYADSVKGRFTISRDNAKNTVYLQMNSLKPEDTAVYYCNARRWITSDYWGQGTQVTVSS | high polyreactivity
10 | QVQLVESGGGLVQAGGSLRLSCAPSGRTFYTYAMGWYRQAPGKERELVAAITRRGGSTFYADSVKGRFTISLDNAKNPVDLQMNSLKPEDTAVYYCAAGVVWSYSLYSIYEYDYWGQGTQVTVSS | high polyreactivity
11 | QVQLVESGGGLVQAGGSLRLSCAPSGRTFYWYTMGWYRQAPGKERELVAAISSSDGSTYYADSVKGRFTISRDNAKNTVYLQMNSLKPEDTAVYYCAADLYYYRYWYRFNYWGQGTQVTVSS | high polyreactivity
12 | QVQLVESGGGLVQAGGSLRLSCAPSGRTIGRNAMGWSRQAPGKERELVAAISASGSRTYYAESVKGRFTISRDNAMNTVYLQMNSLKPVDTAVYYCNAVYRTLYYRFYYWGQGTQVTVSS | high polyreactivity
13 | QVQLVESGGGLVQAGGSLRLSCAPSGRTLRVNTMGWYRQAPGKERELVAAISSGGSRTNYADSVKGRFTISRDNAKNTVYLQMNSLKPEDTAVYYCNKYNRFVYSPPSVYWGQGTQVTVSS | high polyreactivity
14 | QVQLVESGGGLVQAGGSLRLSCAPSGRTYLTYVMGWYRQAPGKERELVAAITRGGRTNYADSVKGRFTISRDNAKNTVYLQMNSLQPEDTAVYYCARDIHSVHNNRDKHDYDDWGQGTLVTVSS | low polyreactivity
15 | QVQLVESGGGLVQAGGSLRLSCAPSGSIFIYYAMGWYRPAPGKERELVAAINIGGSTYYADSVKGRFTISRDNAKNSVYLQMKSLKPEDTAVYYCNAATWYRVYPYYIIYDYWGQGTQVTVSS | low polyreactivity
16 | QVQLVESGGGLVQAGGSLRLSCAPSGSIFLQYTMGWYRQAPGKERELVAAITESDGSTYYADSVKGRFTISRDNAKNTVYLQMNSLKPEDTAVYYCAADVVYFKYWDKYDYWGQGTQVTVSS | low polyreactivity
17 | QVQLVESGGGLVQAGGSLRLSCAPSGSIFPSYAMGWYRQAPGKERELVAAISRSAGSTYYADSVKGRFTISRDNAKNTVYLQMNSLKPEDPAVYYCAADGYSSRYRYDYWGQGTQVTVSS | low polyreactivity
18 | QVQLVESGGGLVQAGGSLRLSCAPSGSIFRKNAMGWYRQAPGKERELVAAITGTGRTTYADSVKGRFTISRDNAKNTVYLQMNSLKPEDTAVYYCAAESVSSGDNASRYDYWGQGTQVTVSS | low polyreactivity
19 | QVQLVESGGGLVQAGGSLRLSCAPSGSIFSWYAMGWYRQAPGKERELVAAIDDDDSTNYADSVKGRFTISRDNAKNTVYLQMNSQKPEDTAVYYCNTRSRPYWYIYRPGDYWGQGTQVTVSS | low polyreactivity
20 | QVQLVESGGGLVQAGGSLRLSCAPSGSIFYLNAMGWYRQAPGKERELVAAISKRGSRTYYADSVKGRFTISRDNAKNTVYLQMNSLKPEDTAVYYCNALDTPGYNTEPARQYDHWGQGTQVTVSS | high polyreactivity
21 | QVQLVESGGGLVQAGGSLRLSCAPSGSIFYRNAMGWYIQAPGKERELVAAISWSAARTYYADSVKGRFTISRDNAKNTVYLQMNSLKPEDTAVYYCATLYSYNYWGQGTQVTVSS | high polyreactivity
22 | QVQLVESGGGLVQAGGSLRLSCAPSGSIFYSYAMVWYRQAPGKERELVASISRGGTTYYADSVKGRFTISRDNAKNTVYLQMNSLKPEDTAVYYCAAELSEWTNGFDYWGQGTQVTVSS | high polyreactivity

Row | Sequence | polyreactivity (PSR sort gate)
23 | QVQLVESGGGLVQAGGSLRLSCAPSGSISFSNALGWYRQAPGKERELVASITSGGSTKYADSVKGRFTFSRDNAKNTVYLQMNSLQPEDTAVYYCNADSPESVYDEYDYWGQGTQVTVSS | low polyreactivity
24 | QVQLVESGGGLVQAGGSLRLSCAPSGSSKLMLWDGIDRRLGKKGSWLPLFVLVVLRNYADSVKGRFTISRDNANNTVYLQMNSLKPEDTAVYYCAATPIGSGGWGDYWGQGTQVTVSS | low polyreactivity
25 | QVQLVESGGGLVQAGGSLRLSCAPSGSTFTINVMGWYRQAPGKERELVAAINGGGRTNYADSVKGRFTISRDNAKNTVYLQINSLIPEDTAVYYCAADGLSNVRQMDYWGQGTQVTVSS | low polyreactivity
26 | QVQLVESGGGLVQAGGSLRLSCAPSGSTFYPYAMGWYRQAPGKERELVAAISSGGSTYYADSVKGRFTISRDNAKNTVYLQMNSLKPEDTAVYYCAADFYYAYYWGQGTQVTVSS | low polyreactivity
27 | QVQLVESGGGLVQAGGSLRLSCAPSGSTFYSNAMGWYRQAPGKERELVASISWSSGSTYYADSVKGRFTISRDNAKNTVYLQMNSLKPEDTAVYYCNKRPVILYDYWGQGTQVTVSS | low polyreactivity
28 | QVQLVESGGGLVQAGGSLRLSCAPSGSTFYSYAMGGYRQAPGKERELVAAITVSGTSTYYADSVKGRFTISRDNAKNTVYLQMNSLKPEDTAVYYCAARPRRRYYGYDSWGQGTQVTVSS | high polyreactivity
29 | QVQLVESGGGLVQAGGSLRLSCAPSGSTLFYNAMGCYRQSPGKETELVATISGGGVSTYYADSVNGRFRISRDNAKNSVYLQMYSLKPEDTAVYYCAAAGWSEGGYDYWGQGTQVTVSS | low polyreactivity
30 | QVQLVESGGGLVQAGGSLRLSCAPSGSTSFSNDMGWYRQAPGKERELVAAIRSGGSTDYADSVKGRFTISRDNAKNTVYLQMNSLKPEDTEVYYFNATQYDAVYPGYARLYDYWGQGTQVTVSS | low polyreactivity
31 | QVQLVESGGGLVQAGGSLRLSCAPSGSTYSRYAMGWYRQAPGKERELVAAISRSGGTTNYADSVKWRFTISRDNAKNTVYLQMNSLKPEDTAVYYCAAYLPFRQGRYGYEYWGQGTQVTVSS | high polyreactivity
32 | QVQLVESGGGLVQAGGSLRLSCAPSGYIPYWYAMGWYRQAPGKERELVAAIDWSGASTNYADSVKGRFTISRDNAKNTVYLQMNSLKPEDTAVYYCAADAVSPDYFVWGDYWGQGTQVTVSS | high polyreactivity
33 | QVQLVESGGGLVQAGGSLRLSCAPSVSINNHYAMGWYRQAPGKERELVAAISRSGGLTYYADSVKGRFTISRDNAKNTVYLQMNCLIAEDTAVYYCDAGTSWPWYQRDYWGQGTQVTVSS | low polyreactivity
34 | QVQLVESGGGLVQAGGSLRLSCASGLTFYRYAMGWYRQAPGKERELVAAINVRGGSTYYADSVKGRFTISRDNAKNTVYLQMNSLKPEETAVYYCAAYYPGFSYRYDYWGQGTQVTVSS | low polyreactivity
35 | QVQLVESGGGLVQAGGSLRLSCASSGFIFASYAMGWYRQAPGKERELVAAISYRGGTTYYADSVKGRFTISRDNAKNTVYLQMNSLKPEDTAVYYCAADSPENRYNYWGQGTQVTVSS | high polyreactivity
36 | QVQLVESGGGLVQAGGSLRLSCASSGFIFPLYAMGWYRQAPGKERELVAAINWRGGTTYYADSVKGRFTISRDNAKNTVYLQINSLKPDDTAVYYCAATHWAYSRVPYDYWGQGTQVSVSS | high polyreactivity
37 | QVQLVESGGGLVQAGGSLRLSCASSGFTFLINAMGWYRQAPGKERDLVAAIRSGGSTNYADSVKGRFTISRDNAKNTVYLQMNSLKPEDTAVYYCAARRYYPYKYRYGYWGQCTQVTVSS | high polyreactivity
38 | QVQLVESGGGLVQAGGSLRLSCASSGFTFTSYAMGWYRQAPGKERELVAAISSSGGSTYYADSVKGRFTISRDNAKNTVYLQMNSLKPEDTAVYYCAAEYGYGEMDSWGQGTQVTVSS | high polyreactivity
39 | QVQLVESGGGLVQAGGSLRLSCASSGFTFYIYVMGWYRQAPGKEREWVAAISSRGGSTYYADSVKGRFTISRDNAKNTVNSQMNSLKPEDTAVYYCNAVHYVLYGDYDYWGQGTQVTVSS | high polyreactivity
40 | QVQLVESGGGLVQAGGSLRLSCASSGFTINWNDMGWYRQAPGKERELVAAISGGASTYYADSVKGRFTISRDNAKNTVYLQMNSLKPEDTAVYYCAADLDEWGYLFDYWGQGTQVTVSS | low polyreactivity
41 | QVQLVESGGGLVQAGGSLRLSCASSGFTLYGYTKGWYRQAPGKERELVAAISGSGGRTYYADSVKGRFTISRDNAKNTVYLHMNTLKPEDNAVYYCAADSRGTCDGYDYWGQGTQVTVSS | high polyreactivity
42 | QVQLVESGGGLVQAGGSLRLSCASSGITFDKYAMGWYRQAPGKERELVAAISGSDGSTYYADSVKGRFTISRDNAKNTVYLQNNSLKPEDTAVYYCAAESEYAGTYEYDYWGQGNQVTVSS | low polyreactivity
43 | QVQLVESGGGLVQAGGSLRLSCASSGITFILYAMGWYRQAPGKDRELVASITSGGSTDYADSVKGRFTISRDNAKNTVYFQMNSLKPEDTAVYYCAARYVYPYWYGDYYWGQGTQVTVSS | low polyreactivity

From the nanobody polyreactivity screen of Harvey et al. (2022)
